Data from patent US20260078416A1, “ORTHOGONAL METABOLIC FRAMEWORK FOR ONE-CARBON UTILIZATION” (Mojia Biotech Pte. Ltd., priority 2021, published 2026).

Legend:
[1] = tested on: glycolate production from formaldehyde and formate; assay: Resting-cell bioconversion pathway 2 (HACS with CaAbfT), co-feeding formaldehyde and formate; assay type: cell-based, E. coli
Text: We used glycolic acid (glycolate) productivity per cell density (uM glycolate/OD600) as indicator of HACS activity. Two different enzymatic routes for glycolate synthesis are explored. The first pathway (pathway 1) is similar to the pathway used for initial screening in Example 2 with addition of an extra gene, aldehyde dehydrogenase aldA from Escherichia coli (EcAldA) overexpressed to drive flux from glycolaldehyde to glycolate (FIG. 21A). In addition, HACS and LmACR-AldA are controlled under independent inducible promoters to investigate the impact of varying relative gene expressions (FIG. 21B). The second pathway (pathway 2) involves independent fluxes of formaldehyde and formyl-CoA allowing assessment of the enzyme activity with response to changing formaldehyde concentration only, while maintaining constant formyl-CoA flux. Formyl-CoA is generated by formic acid (formate) catalyzed by the acyl-CoA transferase from Clostridium aminobutyricum (CaAbfT) (FIG. 22A).
For the in vivo prototyping, we engineered vectors to independently control expression of HACS variants and the LmACR-EcAldA (pathway 1, FIG. 21A) or CaAbfT (pathway 2, FIG. 22A), with HACS under control of the IPTG-inducible T7 promoter in pCDFDuet-1 and LmACR-EcAldA or CaAbfT under control of a cumate-inducible T5 promoter in pETDuet-1 (FIG. 21B). As a host for these vectors, we used an engineered strain of E. coli based on MG1655(DE3) with knockouts for formaldehyde (ΔfrmA) and formate (ΔfdhF ΔfdnG ΔfdoG) oxidation as well as for glycolate utilization (ΔglcD)), which we expected could compete or interfere with the analysis of our pathway. […]
Cells from the above pre-cultures were then centrifuged (4000 rpm, 22° C.), washed with the above minimal media without any carbon source, and resuspended with 1 mL of above minimal media containing indicated amounts of carbon source. […] The cells were harvested after 3 hours for LmACR-EcAldA co-expression and 1 hour for CaAbfT co-expression by centrifugation and the supernatant analyzed by HPLC or GC-MS as described in EXAMPLE 2. […]

[2] = In vitro kinetic assay of purified HACS variants; substrate acetaldehyde; assay type: biochemical; settings: for Km: read-out: Km, app
Method: (§1) The kinetic assay was performed with a coupled reaction providing formyl-CoA from formate catalyzed by CoA transferase CaAbfT using acetyl-CoA as a CoA donor.
(§2) In vitro kinetic assay was comprised of 100 mM KPi pH 6.9, 10 mM MgCl2, 0.15 mM TPP, 2 mM acetyl-CoA, 1 μM CaAbfT, 0.25 μM HACS variants, and 20 mM sodium formate. Reactions were incubated at room temperature for 3 min to convert formate to formyl-CoA, and then specific concentration of aldehyde (specifically acetaldehyde or propionaldehyde here) was added to the reaction. After incubating another 3 min, 1/20 of the reaction volume of 10 M NaOH solution was added to terminate the reactions. After 30 min hydrolysis, 1/20 of the reaction volume of 10 N H2SO4 was added to neutralize the pH. Samples were centrifuged at 20817×g for 15 minutes and the supernatant analyzed by GC-MS as described below.
(§3) For this analysis, 0.15 of the reaction volume of internal standard methyl succinate was added to the samples. The resulting sample was extracted into 4 mL ethyl acetate by vigorous vortexing for 20 min. The organic phase was separated and evaporated to dryness under a stream of nitrogen. The residue was dissolved in 30 μL pyridine and 30 μL N,O-Bis(trimethylsilyl)trifluoroacetamide (BSTFA) and incubated at 60° C. for 15 minutes. Compound identification and analysis was performed by GC-MS using an Agilent 7890B Series Custom Gas Chromatography system equipped with a 5977B Inert Plus Mass Selective Detector Turbo EI Bundle (for identification) and an Agilent HP-5-ms capillary column (0.25 mm internal diameter, 0.25 μm film thickness, 30 m length). Samples were analyzed by GC (1 μL injection with a 20:1 split ratio) using helium as the carrier gas at a flowrate of 1.5 mL/min and the following temperature profile: initial 90° C. for 3 min; ramp at 15° C./min to 170° C.; ramp at 20° C./min to 300° C. and hold for 8 min. The injector and detector temperature were 250° C. and 350° C., respectively.
(§4) As hypothesized from Example 3 (FIG. 22B), JGI15 had lower Km with lower kcat with respect to formaldehyde in comparison with JGI20 (Table 8). With longer chain aldehydes JGI15 and JGI20 has lower Km (sub millimolar) to acetaldehyde and propionaldehyde compared to JGI23 and JGI24, while also lower Kcat as well. Which indicates they have stronger affinity to the aldehyde and lower enzymatic activity. JGI23 and JGI24 are promising as they have better activity (higher Kcat) which have a good potential to work better in vivo by improve their affinity to substrates (lower Km). Similarly, AcHACL as lower Km with acetone while JGI15 as better Kcat (Table 8).

[3] = In vitro kinetic assay of purified HACS variants; substrate propionaldehyde; assay type: biochemical; settings: for Km: read-out: Km, app
Method: as §1, §2, §3, §4

[4] = 0.5 mM formaldehyde and 20 mM formate co-fed

Molecule | glycolate productivity under high formaldehyde concentration ([1]; 5 mM formaldehyde and 20 mM formate co-fed) | Kcat, app [2] | Km [2] | Kcat, app [3] | Km [3] | glycolate productivity relative to JGI20 [1, 4] | glycolate productivity relative to RuHACL [1, 4]
JGI20: HACS variant; GenBank PWB41796.1 (protein) MGQITGAQIVARALKQQGVEYMFGIVGIPVIPIAMFAQREGIKFYGFRNEQSASYAAAAVGYLTGRPGVCLGVSGPGMIHGVAGMANAWSNCWPMILIGGANDSYQNGQGAFQEAPQIEAARPFAKYCARPDSLARLPFYVEQAVRTSIYGRPGAVYLDLPGDIITGAMEEEDVHFPPRCPDAPRMMAPQESIDAAMAALKSAERPLVIVGKGAAYSRAENEVREFLETTQLPYLASPMGKGVMPDDHPLSIAPARSAALLGADVILLMGARLNWMMHFGHPPRFDPKVRVIQMDISAEEIGTNVPTEVALVGDAKAITTQLNASLKQQPWQYPSETTWWTGLRKKIDENGATVAEMMADESVPMSYYRVYREIRDLIPNDAIIQNEGASTMDIGRTLMPNFLPRHRLDAGSFGTMGVGLGQAIAAAAVHPDKHVFCIEGDSAFGFSGMEVETAARYGMKNITFIIINNNGIGGGPDTLDPTRVPPSAYTPNAHYEKMAEIYGGKGYFVTEPSQLRPALEEAIKADKPAIVNIMISATSQRKPQQFAWLTR | better glycolate productivity | 39.44 ± 3.95 s⁻¹ | 930 ± 150 µM | 17.35 ± 1.97 s⁻¹ | 420 ± 60 µM |  | 
JGI15: HACS variant; GenBank HAK63664.1 (protein) MAKSEGKVNGATLMARALQQQGVQYMFGIVGFPVIPIAIAAQREGITYIGMRNEQSASYAAQAASYLTGRPQACLVVSGPGVVHALAGLANAQVNCWPMLLIGGASAIEQNGMGAFQEERQVLLASPLCKYAHQVERPERIPYYVEQAVRSALFGRPGAAYLDMPDDVILGEVEEAAVRPAATVGEPPRSLAPQENIEAALDALQSAKRPLVIVGKGMAWSRAENEVRQFIERTRLPFLATPMGKGVMPDDHPLSVGGARSHALQEADLVFLLGARFNWILHFGLPPRYSKDVRVIQLDLSAEEIGNNRQAEVALVGDGKAIVGQLNQALSSRQWFYPAETPWREAIAAKIAGNQAAVAPMIADNTSPMNYYRVYRDIAARLPRNAIIVGEGANTMDIGRTQMPNFEPRSRLDAGSYGTMGIGLGFAVAAAAVHPGRPVIAVQGDSAFGFSGMEFETAARYGMPIKVIILNNGGIGMGSPAPRDGQPGMPHALSHDARYERIAEAFGGAGFYVTDSAELGPALDAAMAFKGPAIVNIKIAATADRKPQQFNWHG |  | 22.50 ± 1.93 s⁻¹ | 290 ± 20 µM | 11.08 ± 0.02 s⁻¹ | 200 ± 40 µM | 1.5 fold | 7 fold
